Assay results reported in doi:10.1101/2020.06.30.179986 (bioRxiv, 2020).

T1: Hfp N-terminal RRMs (half pint, PUF60 homolog) (UniProt Q8T6B9 110-326)
T1 sequence: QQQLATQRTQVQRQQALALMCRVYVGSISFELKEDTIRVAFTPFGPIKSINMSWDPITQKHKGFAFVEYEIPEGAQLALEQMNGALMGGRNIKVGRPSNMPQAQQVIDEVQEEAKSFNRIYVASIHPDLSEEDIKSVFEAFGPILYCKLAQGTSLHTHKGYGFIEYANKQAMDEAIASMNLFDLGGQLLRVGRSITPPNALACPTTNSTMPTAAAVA

B1: recombinant protein composed of the two N-terminal RNA Recognition Motifs (RRM) of Half pint (Hfp) (domain or fragment, Drosophila, UniProt Q8T6B9 110-326, looked up)
chain: T1 sequence

Experiments:
[1] = target: T1, Hfp N-terminal RRMs (half pint, PUF60 …); experiment: EMSA
[2] = target: the molecule itself; experiment: SDS-PAGE and Western blot

Binder | binding result [1] | stoichiometry N [2]
UUUUUCUCUU (ssRNA) [Positive control (Drosophila consensus polypyrimidine-rich sequence)] | binds | –
UACGUACGUA (ssRNA) [Negative control scramble] | no binding | –
B1 | – | 2
UCUUCCCCUC (ssRNA) [act57B PT] | binds | –
